Experimental data reported in article doi:10.1101/370387 (bioRxiv, 2018).
Substitutions are numbered along the chain they refer to. Read-outs that look alike come from different tables or passages of the source. No end group written: not given here.

B1: phospholamban Asn27-Ala mutant (canine PLN sequence), super-inhibitory pentameric form (natural protein, UniProt P61012 1-52, looked up)
chain: MDKVQYLTRSAIRRASTIEMPQQARQALQNLFINFCLILICLLLICIIVMLL
modifications: cysteine pairing not given here; also: pentameric form
B2: phospholamban Lys27-Ala mutant (human PLN sequence), super-inhibitory pentameric form (natural protein, UniProt P26678 1-52, looked up)
chain: B1 chain with D2E
modifications: cysteine pairing not given here; also: pentameric form

Columns and labels:
[1] = target: the molecule itself; assay: cryo-EM structure
[2] = target: the molecule itself; assay: cryo-EM structure; remark: listed apart in the source

| Protein | stoichiometry N [1] | stoichiometry N [2] |
| --- | --- | --- |
| B1 | 4 | – |
| B2 | – | 5 |
